In this assay the test system is AML BMMC leukemic blasts. Briefly: SCNP modulated signaling assay, AML study No. 2 (BMMC, CR vs NR, clinical sub-groups). It is filed as cell-based, human.
Where [1] appears, read: Study No. 2, all patients, CR samples.
The mark [2] stands for this setting: Study No. 2, all patients, NR samples.

B1: IL-27: interleukin-27 (protein, UniProt Q8NEV9 29-243; Q14213 21-229, looked up)
Interleukin-27 subunit alpha: FPRPPGRPQLSLQELRREFTVSLHLARKLLSEVRGQAHRFAESHLPGVNLYLLPLGEQLPDVSLTFQAWRRLSDPERLCFISTTLQPFHALLGGLGTQGRWTNMERMQLWAMRLDLRDLQRHLRFQVLAAGFNLPEEEEEEEEEEEEERKGLLPGALGSALQGPAQVSWPQLLSTYRLLHSLELVLSRAVRELLLLSKAGHSVWPLGFPTLSPQP
Interleukin-27 subunit beta: RKGPPAALTLPRVQCRASRYPIAVDCSWTLPPAPNSTSPVSFIATYRLGMAARGHSWPCLQQTPTSTSCTITDVQLFSMAPYVLNVTAVHPWGSSSSFVPFITEHIIKPDPPEGVRLSPLAERQLQVQWEPPGSWPFPEIFSLKYWIRYKRQGAARFHRVGPIEATSFILRAVRPRARYYVQVAAQDLTDYGELSDWSLPATATMSLGK
On to B1, for which, under setting [1], the “Mean Value of CRs, p-Stat1 Total Phospho” value was 1.66 and the “Mean Value of CRs, p-Stat3 Total Phospho” value is listed as 1.88. Where the note is “Study No. 2, all patients, CR samples, negative = down regulation”, the “Mean Value of CRs, p-Stat3 Fold” value is 0.22. Moreover, under setting [2], the “Mean Value of NRs, p-Stat1 Total Phospho” value came out at 2.63; the “Mean Value of NRs, p-Stat3 Fold” value worked out at 0.58; the “Mean Value of NRs, p-Stat3 Total Phospho” value is 2.43. Also, the “IL-27 response, NR vs CR” value (patients younger than 60 years old) was “NRs have higher IL-27 response than CRs”.

B2: FLT-3L: fms-like tyrosine kinase receptor-3 ligand (protein, UniProt P49771 27-235, looked up)
Fms-related tyrosine kinase 3 …: TQDCSFQHSPISSDFAVKIRELSDYLLQDYPVTVASNLQDEELCGGLWRLVLAQRWMERLKTVAGSKMQGLLERVNTEIHFVTKCAFQPPPSCLRFVQTNISRLLQETSEQLVALKPWITRQNFSRCLELQCQPDSSTLPPPWSPRPLEATAPTAPQPPLLLLLLLPVGLLLLAAAWCLHWQRTRRRTPRPGEQVPPVPSPQDLLLVEH
Turning to B2, where the note is “patients over age 60 or with secondary AML lacking response to induction chemotherapy”, the “Flt3L induced p-Akt and p-Erk” value was “increased Flt3L induced p-Akt and p-Erk”. In addition, for the setting “patients younger than 60 years old (so in the source)”, the “H2O2 and FLT3L responses, NR vs CR” value is “NRs have higher H2O2 and FLT3L responses than CRs”.
